Measurements as given in paper PMC314469, “Protein Interaction Networks by Proteome Peptide Scanning” (PLoS Biology, 2004).

What was measured:
[1] = biological target: endophilin SH3 (SH3G2_HUMAN), Q99962; experiment: SPOT array
[2] = biological target: T1, amphyphisin SH3 (AMPH_HUMAN), P49418; experiment: SPOT array
T1 chain: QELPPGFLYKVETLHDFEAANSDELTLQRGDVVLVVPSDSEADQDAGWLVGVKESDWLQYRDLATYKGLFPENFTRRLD

LAARLRRPSPPEPW [Q9P1Y6 933-946]
normalised SPOT signal, Boehringer light units (BLU); mean over the file's lines of this peptide [1]: 1180
normalised SPOT signal, Boehringer light units (BLU); mean over the file's lines of this peptide [2]: 77.5

KVFLLRRPPQAPLP [Q9P2E8 92-105]
normalised SPOT signal, Boehringer light units (BLU); mean over the file's lines of this peptide [1]: 993
normalised SPOT signal, Boehringer light units (BLU); mean over the file's lines of this peptide [2]: 21

APALPARPHRGLST [Q9UFL7 72-85]
normalised SPOT signal, Boehringer light units (BLU); mean over the file's lines of this peptide [1]: 37600
normalised SPOT signal, Boehringer light units (BLU); mean over the file's lines of this peptide [2]: 5990

KTKGPSRPPLDAKI [Q9HC16 39-53]
normalised SPOT signal, Boehringer light units (BLU); mean over the file's lines of this peptide [1]: 2250
normalised SPOT signal, Boehringer light units (BLU); mean over the file's lines of this peptide [2]: 29

KTFGIRRPLDPLDP [Q9C0J1 326-339]
normalised SPOT signal, Boehringer light units (BLU); mean over the file's lines of this peptide [1]: 41.5
normalised SPOT signal, Boehringer light units (BLU); mean over the file's lines of this peptide [2]: 36.6

KYSAPRRPTATGDY [O00501 199-212]
normalised SPOT signal, Boehringer light units (BLU); mean over the file's lines of this peptide [1]: 36.9
normalised SPOT signal, Boehringer light units (BLU); mean over the file's lines of this peptide [2]: 46.4

KTTPLRRPTETNPV [P46100 660-673]
normalised SPOT signal, Boehringer light units (BLU); mean over the file's lines of this peptide [1]: 57.5
normalised SPOT signal, Boehringer light units (BLU); mean over the file's lines of this peptide [2]: 31.5

KTHPLIRPFKTLTE [Q15413 2649-2662]
normalised SPOT signal, Boehringer light units (BLU); mean over the file's lines of this peptide [1]: 148
normalised SPOT signal, Boehringer light units (BLU); mean over the file's lines of this peptide [2]: 87.1

KVHVPARPYRVLNN [P46013 726-739]
normalised SPOT signal, Boehringer light units (BLU); mean over the file's lines of this peptide [1]: 1730
normalised SPOT signal, Boehringer light units (BLU); mean over the file's lines of this peptide [2]: 4080

KTKTLLRPERSRFD [O75705 229-242]
normalised SPOT signal, Boehringer light units (BLU); mean over the file's lines of this peptide [1]: 80.8
normalised SPOT signal, Boehringer light units (BLU); mean over the file's lines of this peptide [2]: 239

KSRTLKRPTVLEPI [O60469 1933-1946]
normalised SPOT signal, Boehringer light units (BLU); mean over the file's lines of this peptide [1]: 50.9
normalised SPOT signal, Boehringer light units (BLU); mean over the file's lines of this peptide [2]: 29.5

KYSGPYKPPGILKQ [P20933 176-190]
normalised SPOT signal, Boehringer light units (BLU); mean over the file's lines of this peptide [1]: 47.7
normalised SPOT signal, Boehringer light units (BLU); mean over the file's lines of this peptide [2]: 39.4

KTLRLWRPPRYPRK [Q9NPT6 50-63]
normalised SPOT signal, Boehringer light units (BLU); mean over the file's lines of this peptide [1]: 223
normalised SPOT signal, Boehringer light units (BLU); mean over the file's lines of this peptide [2]: 3230

APALPPKPPKPTTV [P27986 303-317]
normalised SPOT signal, Boehringer light units (BLU); mean over the file's lines of this peptide [1]: 2440
normalised SPOT signal, Boehringer light units (BLU); mean over the file's lines of this peptide [2]: 199

KVTAPRRPQRYSSG [Q9ULI4 1214-1227]
normalised SPOT signal, Boehringer light units (BLU); mean over the file's lines of this peptide [1]: 5620
normalised SPOT signal, Boehringer light units (BLU); mean over the file's lines of this peptide [2]: 16200

KSQYFWRPKRMELS [Q9NYS8 813-826]
normalised SPOT signal, Boehringer light units (BLU); mean over the file's lines of this peptide [1]: 232
normalised SPOT signal, Boehringer light units (BLU); mean over the file's lines of this peptide [2]: 733

KTEKPERPSRERDR [Q02241 662-675]
normalised SPOT signal, Boehringer light units (BLU); mean over the file's lines of this peptide [1]: 403
normalised SPOT signal, Boehringer light units (BLU); mean over the file's lines of this peptide [2]: 9120
